Data from US20210054097A1 (Novo Nordisk, published 2021).
Changes are numbered by the printed parent chain. Blank lines part the entries; values can stand above or below the binder they belong to. Ends that are not written are not given here.

Tests used:
[1] = target: T1, FX activation peptide 12-mer TSSSGEAPDSIT (human); assay: peptide ELISA
T1 peptide: TSSSGEAPDSIT-biotin
In short: (§1)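 Nanobodies (FLAG-tagged) or IgG antibodies, 2 μg/mL, incubated 1 h on C-terminally biotinylated peptide captured via streptavidin, washing buffer pH 8.60 containing CaCl₂ and Tween 20. Read-out: HRP-conjugated secondary antibody with TMB colour development.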

[2] = target: T2, FX activation peptide 12-mer SSSGEAPDSITW (human); assay: peptide ELISA
T2 peptide: SSSGEAPDSITW-biotin
In short: as §1

[3] = target: T3, FX activation peptide 12-mer PDSITWKPYDAA (human); assay: peptide ELISA
T3 peptide: PDSITWKPYDAA-biotin
In short: as §1

[4] = target: T4, FX activation peptide 12-mer TWKPYDAADLDP (human); assay: peptide ELISA
T4 peptide: TWKPYDAADLDP-biotin
In short: as §1

[5] = target: T5, FX activation peptide 12-mer KPYDAADLDPTE (human); assay: peptide ELISA
T5 peptide: KPYDAADLDPTE-biotin
In short: as §1

[6] = target: T6, human plasma-derived Factor X zymogen (human, UniProt P00742 41-179; P00742 183-488); assay: cell-based or functional assay
T6 sequence (P00742 41-179, chain 1 of 2): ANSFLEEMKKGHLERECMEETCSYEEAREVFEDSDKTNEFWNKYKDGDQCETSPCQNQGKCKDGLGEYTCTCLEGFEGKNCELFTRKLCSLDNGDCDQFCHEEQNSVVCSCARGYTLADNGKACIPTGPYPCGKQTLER
T6 sequence (P00742 183-488, chain 2 of 2): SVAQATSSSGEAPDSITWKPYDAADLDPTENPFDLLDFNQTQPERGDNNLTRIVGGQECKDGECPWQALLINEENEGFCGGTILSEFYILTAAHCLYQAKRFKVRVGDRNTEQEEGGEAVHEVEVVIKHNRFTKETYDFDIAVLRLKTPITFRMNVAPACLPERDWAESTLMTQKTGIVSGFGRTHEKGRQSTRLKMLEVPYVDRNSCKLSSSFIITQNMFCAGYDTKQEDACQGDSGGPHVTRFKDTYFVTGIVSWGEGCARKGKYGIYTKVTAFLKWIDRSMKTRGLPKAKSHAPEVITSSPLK

[7] = target: human activated Factor X (human, UniProt P00742 41-179; P00742 235-488); assay: cell-based or functional assay
Chain of human activated Factor X (P00742 41-179, chain 1 of 2): as the sequence (P00742 41-179, chain 1 of 2) above
Chain of human activated Factor X (P00742 235-488, chain 2 of 2): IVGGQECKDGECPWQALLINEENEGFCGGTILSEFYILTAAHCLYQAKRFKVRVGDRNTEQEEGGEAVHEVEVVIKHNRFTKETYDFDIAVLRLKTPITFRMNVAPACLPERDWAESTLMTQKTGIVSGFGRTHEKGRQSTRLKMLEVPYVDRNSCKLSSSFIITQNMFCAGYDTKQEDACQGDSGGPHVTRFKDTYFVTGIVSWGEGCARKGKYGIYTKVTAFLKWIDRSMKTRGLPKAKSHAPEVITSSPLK

[8] = target: T6, human plasma-derived Factor X zymogen; assay: apparent KD fitted from FXa generation assay
Description: The ability of the monovalent anti-FX Nanobody® (Nb) to promote FIXa-mediated FX-activation was determined in the presence of a procoagulant phospholipid membrane according to the principles described by Scheiflinger et al. (2008) J Thromb Haemost, 6:315-322. A Fab of mAb 13F62 (IgG1 isotype, variable sequences identified by SEQ ID NO:6 and 7), also found to bind the activation peptide, were included for comparison. Moreover, anti-FX antibodies as disclosed in U.S. Pat. No. 9,334,331 (J327 and L404-k in said publication), corresponding to the anti-FX arm of ACE910); and more recently in WO2018/021450 (J327 D31H and JYL280 in said publication) and WO2018/098363 (BIIB-12-917 represented by SEQ ID NO:427 and 615 in said publication) are stated to be suitable for use as part of anti-FIX/anti-FX bispecific FVIII mimetic compounds were, furthermore, included for comparison.
Each compound was tested individually in a concentration range from 0-1000 nM, 0-2000 nM, 0-4000 nM or 0-8000 nM by pre-incubation with 1-1.5 nM human plasma-derived FIXa (Haematologic Technologies Inc, USA) and 500 μM 25:75 phosphatidyl serine:phosphatidyl choline phospholipid vesicles (Haematologic Technologies Inc, USA) in assay buffer (50 mM HEPES, 100 mM NaCl, 5 mM CaCl₂, 0.1% (w/v) PEG8000, 1 mg/mL bovine serum albumin, pH 7.3) for 10 minutes. The reaction was initiated by addition of human plasma-derived FX (Haematologic Technologies Inc, USA) to a final concentration of 100 nM and a reaction volume of 50 μL. Following 20 minutes activation at room temperature while agitated (1000 RPM), the reaction was quenched by addition of 25 μL quench buffer (50 mM HEPES, 100 mM NaCl, 60 mM EDTA, 0.1% (w/v) PEG8000, 1 mg/mL bovine serum albumin, pH 7.3). The amount of FXa generated was determined by addition of 25 μL 2 mM S-2765 chromogenic substrate for FXa (Chromogenix, Sweden) and chromogenic substrate conversion was followed by measuring absorbance at 405 nm for 10 minutes in a microplate reader. The observed change in 405 nm absorbance (ΔAbs405/min) was fitted to the quadratic binding equation (eq. 1) to obtain the peak stimulatory activity and EC50.

[9] = target: T7, FX activation peptide 12-mer DPTENPFDLLDF (human); assay: peptide ELISA
T7 peptide: DPTENPFDLLDF-biotin
In short: as §1

[10] = target: T8, FX activation peptide 12-mer PTENPFDLLDFN (human); assay: peptide ELISA
T8 peptide: PTENPFDLLDFN-biotin
In short: as §1

[11] = target: T9, FX activation peptide 12-mer PFDLLDFNQTQP (human); assay: peptide ELISA
T9 peptide: PFDLLDFNQTQP-biotin
In short: as §1

- ELISA signal relative to background [1]: 0.87
- ELISA signal relative to background [2]: 0.9
- ELISA signal relative to background [3]: 0.92
- ELISA signal relative to background [4]: 1
- ELISA signal relative to background [5]: 0.9
- Increase in FX activation (fold) [6]: 26 fold
- FXa amidolytic activity (relative to free FXa, fold) [7]: 1.06 fold
- Kd [8]: 41.9 nM
B1: Nb 701C06 (VHH)
VHH: EVQLVESGGGVVQPGGSLRLSCAASGRTFSTYAMGWFRQAPGKEREFVAAISRRGGRTYYADSVKGRFTISRDNSKNTVYLQMNSLRPEDTALYYCAADATARDGLLDYWGQGTLVTVSS
notes: monovalent Nanobody; not shown: C-terminal FLAG3 and HIS6 tag

- ELISA signal relative to background [1]: 0.97
- ELISA signal relative to background [2]: 0.84
- ELISA signal relative to background [3]: 0.83
- ELISA signal relative to background [4]: 0.92
- ELISA signal relative to background [5]: 0.88
- ELISA signal relative to background [9]: 2.87
- ELISA signal relative to background [10]: 3.91
- ELISA signal relative to background [11]: 3.48
- Increase in FX activation (fold) [6]: 83 fold
- FXa amidolytic activity (relative to free FXa, fold) [7]: 1.06 fold
- Kd [8]: 72.3 nM
B2: Nb 701B09 (VHH)
VHH: B1 VHH with R53W, R54S, G56S, A102P, R103A, D104N, L106E
notes: monovalent Nanobody; also called Nb 701609; not shown: C-terminal FLAG3 and HIS6 tag

- ELISA signal relative to background [1]: 0.75
- ELISA signal relative to background [2]: 0.73
- ELISA signal relative to background [3]: 0.84
- ELISA signal relative to background [4]: 0.91
- ELISA signal relative to background [5]: 0.73
- Increase in FX activation (fold) [6]: 17.2 fold
- FXa amidolytic activity (relative to free FXa, fold) [7]: 1.05 fold
- Kd [8]: 66.1 nM
B3: Nb 701D07 (VHH)
VHH: EVQLVESGGGVVQPGGSLRLSCAASGGTLSRYAMGWFRQAPGKEREFVAAITRRGSRTYYADSVKGRFTISRDNSKNTVYLQMNSLRPEDTALYYCAADLAPGDYALDYWGQGTLVTVSS
notes: as for B1

- ELISA signal relative to background [1]: 0.77
- ELISA signal relative to background [2]: 0.86
- ELISA signal relative to background [3]: 1.05
- ELISA signal relative to background [4]: 1.13
- ELISA signal relative to background [5]: 0.8
- ELISA signal relative to background [9]: 4.16
- ELISA signal relative to background [10]: 4.58
- ELISA signal relative to background [11]: 4.95
- Increase in FX activation (fold) [6]: 18.9 fold
- FXa amidolytic activity (relative to free FXa, fold) [7]: 1.05 fold
- Kd [8]: 75.4 nM
B4: Nb 702C12 (VHH)
VHH: B1 VHH with A23V, T31R, R57S, Y59N, A100Y, T101S, A102S, R103G, L106Y
notes: as for B1

- ELISA signal relative to background [1]: 1.12
- ELISA signal relative to background [2]: 1.24
- ELISA signal relative to background [3]: 0.95
- ELISA signal relative to background [4]: 0.99
- ELISA signal relative to background [5]: 1.33
- ELISA signal relative to background [9]: 4.03
- ELISA signal relative to background [10]: 5.18
- Increase in FX activation (fold) [6]: 4.1 fold
- FXa amidolytic activity (relative to free FXa, fold) [7]: 1.11 fold
- Kd [8]: 83.2 nM
B5: Nb 729A04 (VHH)
VHH: EVQLVESGGGVVQPGGSLRLSCAASGFTFSDYAMSWVRQAPGKGLEWVSGITSGGGRTYYADSVKGRFTISRDNSKNTLYLQMNSLRPEDTALYYCAAVRTLGLRGSYDYWGQGTLVTVSS
notes: as for B1

- ELISA signal relative to background [1]: 1.2
- ELISA signal relative to background [2]: 1.21
- ELISA signal relative to background [3]: 1.24
- ELISA signal relative to background [4]: 1.26
- ELISA signal relative to background [5]: 1.17
- ELISA signal relative to background [11]: 1.23
- Increase in FX activation (fold) [6]: 9.2 fold
- FXa amidolytic activity (relative to free FXa, fold) [7]: 1.01 fold
- Kd [8]: 63.9 nM
B6: Nb 730C03 (VHH)
VHH: B5 VHH with A23V, G55S, L79V, V99A, R100I, T101L, L102R, L104Y, G106K, S107T
notes: monovalent Nanobody; also called Nb 730003; not shown: C-terminal FLAG3 and HIS6 tag

- ELISA signal relative to background [1]: 0.76
- binding result [1]: no binding (tested: 2 µg/mL)
- ELISA signal relative to background [2]: 0.82
- binding result [2]: no binding (tested: 2 µg/mL)
- ELISA signal relative to background [3]: 0.79
- binding result [3]: no binding (tested: 2 µg/mL)
- ELISA signal relative to background [4]: 0.74
- binding result [4]: no binding (tested: 2 µg/mL)
- ELISA signal relative to background [5]: 0.82
- binding result [5]: no binding (tested: 2 µg/mL)
- ELISA signal relative to background [9]: 0.88
- binding result [9]: no binding (tested: 2 µg/mL)
- ELISA signal relative to background [10]: 0.88
- binding result [10]: no binding (tested: 2 µg/mL)
- ELISA signal relative to background [11]: 0.79
- binding result [11]: no binding (tested: 2 µg/mL)
- Increase in FX activation (fold) [6]: 0.8 fold
- Kd [8]: 802 nM
B7: Nb 501A02 (VHH)
VHH: EVQLVESGGGLVQPGGSLRLSCAASGFTFSNYEMSWVRQAPGKGLEWVSDIGSGGGVSTYYADSVKGRFTISRDNAKNTLYLQMNSLKPEDTAMYYCARGWTYGSDGMDYWGKGTLVTVSS
notes: monovalent control Nanobody; also called control Nanobody; not shown: C-terminal FLAG3 and HIS6 tag

- ELISA signal relative to background [1]: 1.06
- ELISA signal relative to background [2]: 1.1
- ELISA signal relative to background [3]: 1.17
- ELISA signal relative to background [4]: 1.17
- ELISA signal relative to background [5]: 1.1
- ELISA signal relative to background [10]: 2.06
- ELISA signal relative to background [11]: 1.18
- Increase in FX activation (fold) [6]: > 32 fold
- FXa amidolytic activity (relative to free FXa, fold) [7]: 1.09 fold
- Kd [8]: ~1400 nM
B8: Nb 729C08 (VHH)
VHH: EVQLVESGGGVVQPGGSLRLSCAASGFTFSDYAMSWVRQAPGKGLEWVSGITGGGRTYYADSVKGRFTISRDNSKNTLYLQMNSLRPEDTALYYCAAAILTRTRRTYDYWGQGTLVTVSS
notes: monovalent Nanobody; also called Nb 729008; not shown: C-terminal FLAG3 and HIS6 tag
